According to patent publication US20230416345A1, “NEW TYPE II COLLAGEN BINDING PROTEINS” (Navigo Proteins GmbH, priority 2020, published 2023):

Columns and labels:
[1] = biological target: T1, porcine collagen type II (p Col II) (Sus scrofa, UniProt A0A287A2Q7); assay: KD-determination by ELISA vs porcine collagen type II; assay type: binding
T1 construct: porcine collagen type II (p Col II, prepared from porcine eyes); from tissue; host or cells: porcine eyes
Procedure: (§1) High binding plates (Greiner, 781061) were immobilized with 2.5 μg/ml recombinant human collagen type II (h Col II, Chondrex, CHX-20051), rabbit collagen type II (rbCol II, prepared from rabbit eyes), porcine collagen type II (p Col II, prepared from porcine eyes), human collagen type I, (h Col I, Sigma, C5483-1MG), human collagen type V (h Col V, Abcam, ab7537), human collagen type III (h Col Ill, Abcam, ab7535) and 67B89 (domain of fibronectin, produced in E. coli) respectively over night at 4° C. ELISA-plates were washed 3 times with PBST (PBS+ 0.1% Tween) and blocked with 3% BSA/0.5% Tween/PBS 2 h at RT. After washing with PBST, dilution series of 1.1 μM to 7×10^−4 nM of dimers (CID 211999, CID 212000), dilution series of 100 nM to 7×10^−6 nM of tetramers (CID 212001 and CID 212704) and dilution series of 10 μM to 2 nM of dimer (CID 212705) were incubated on ELISA-plates 1 h at rt. Plates were washed with PBST and incubated with biotinylated anti-StrepTag-ab (Antikörper-online, ABIN1573895) with a dilution of 1:10.000 for 1 h at rt. The binding was visualized with a-rabbit-IgG-HRP (Sigma, A9169) with a dilution of 1:10.000 and as substrate TMB Plus von KEM EN TEC Diagnostic, Kat-Nr. 4395.

[2] = biological target: T2, Type III collagen (Homo sapiens, UniProt P02461); assay: SPR specificity vs Type III collagen; assay type: binding
T2 sequence (P02461 154-1221 limits assumed): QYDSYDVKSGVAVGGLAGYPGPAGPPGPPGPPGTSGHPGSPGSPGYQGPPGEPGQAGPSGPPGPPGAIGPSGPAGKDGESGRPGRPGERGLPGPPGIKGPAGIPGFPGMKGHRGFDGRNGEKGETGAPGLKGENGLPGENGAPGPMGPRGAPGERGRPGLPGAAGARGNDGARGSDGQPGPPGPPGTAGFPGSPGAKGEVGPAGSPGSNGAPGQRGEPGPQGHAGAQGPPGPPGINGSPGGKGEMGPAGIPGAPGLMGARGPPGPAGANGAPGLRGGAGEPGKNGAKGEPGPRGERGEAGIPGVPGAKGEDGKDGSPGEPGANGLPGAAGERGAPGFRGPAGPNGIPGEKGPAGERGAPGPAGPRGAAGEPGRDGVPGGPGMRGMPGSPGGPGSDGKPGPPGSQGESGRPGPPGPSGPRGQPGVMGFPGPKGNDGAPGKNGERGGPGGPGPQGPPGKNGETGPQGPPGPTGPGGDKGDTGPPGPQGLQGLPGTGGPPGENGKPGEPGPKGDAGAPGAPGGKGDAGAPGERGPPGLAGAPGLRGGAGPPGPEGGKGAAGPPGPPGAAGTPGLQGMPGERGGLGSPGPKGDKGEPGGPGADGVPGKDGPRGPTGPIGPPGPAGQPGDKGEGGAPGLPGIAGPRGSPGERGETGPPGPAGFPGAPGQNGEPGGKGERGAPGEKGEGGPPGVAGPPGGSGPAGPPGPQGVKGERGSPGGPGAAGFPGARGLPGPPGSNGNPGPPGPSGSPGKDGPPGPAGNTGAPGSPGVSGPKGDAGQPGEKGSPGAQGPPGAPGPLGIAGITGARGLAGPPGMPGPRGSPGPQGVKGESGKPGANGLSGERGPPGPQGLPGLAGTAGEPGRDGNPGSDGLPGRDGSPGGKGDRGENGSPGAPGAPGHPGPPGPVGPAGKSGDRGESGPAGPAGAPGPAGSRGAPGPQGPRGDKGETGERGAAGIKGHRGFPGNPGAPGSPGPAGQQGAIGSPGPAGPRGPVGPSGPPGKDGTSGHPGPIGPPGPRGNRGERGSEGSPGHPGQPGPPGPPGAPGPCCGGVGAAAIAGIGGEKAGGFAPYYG
Procedure: (§2) The purified proteins were immobilized on a CM-5 sensor chip (GE Healthcare) using NHS/EDC after PDEA activation resulting in 110-140 RU with a Biacore 3000 system (GE Healthcare). The chip was equilibrated with SPR running buffer (PBS 0.05% Tween pH 7.3). Upon binding, target analyte was accumulated on the surface increasing the refractive index. This change in the refractive index was measured in real time and plotted as response or resonance units versus time. The analytes were applied to the chip in serial dilutions with a flow rate of 30 μl/min. The association was performed for 120 seconds and the dissociation for 120 seconds. After each run, the chip surface was regenerated with 30 μl regeneration buffer (10 mM glycine pH 2.0) and equilibrated with running buffer.
(§3) Binding studies were carried out by the use of the BIAcore 3000 (GE Healthcare); data evaluation was operated via the BIAevaluation 3.0 software, provided by the manufacturer, using the Langmuir 1:1 model (RI=0). Evaluated dissociation constants (KD) were standardized against the immobilized protein and indicated. Shown is the change in refractive index measured in real time and plotted as response or resonance unit [RU] versus time [sec].

[3] = biological target: Type V collagen (Homo sapiens, UniProt P05997+P20908); assay: SPR specificity vs Type V collagen; assay type: binding
Procedure: as §2, §3

[4] = Soluble expression in Escherichia coli BL21(DE3); assay type: physicochemical; details: expression in E. coli BL21(DE3)
Procedure: Variants with affinity tag were expressed in Escherichia coli BL21(DE3) using a low copy plasmid system under regulation of a T7 promoter. Proteins were produced in soluble form after induction by lactose included in the medium (autoinduction medium). BL21 (DE3) competent cells were transformed with the expression plasmid, spread onto selective agar plates (kanamycin) and incubated overnight at 37° C. Precultures were inoculated from single colony in 3 ml 2×YT medium supplemented with 50 μg/ml kanamycin and cultured for 6 hours at 37° C. at 200 rpm in a conventional orbital shaker in culture tubes. […] Cultures were transferred to an orbital shaker and incubated at 30° C. and 200 rpm. Recombinant protein expression was induced by metabolizing glucose and subsequently allowing lactose to enter the cells. Cells were grown overnight for approx. 17 hours to reach a final OD600 of about 2-4. Before the harvest, the OD600 was measured, samples adjusted to 0.6/OD600 were withdrawn, pelleted and frozen at −20° C. To collect biomass cells were centrifuged at 12000×g for 15 min at 22° C. Pellets were weighed (wet weight). Cells were stored at −20° C. before processing.
(§4) Proteins with affinity tag were purified by affinity chromatography and size exclusion. After affinity chromatography purification using Strep-Tactin Superflow high capacity cartridges (IBA Lifesciences) a size exclusion chromatography (SEC) was performed using an Äkta system and a Superdex™ 200 HiLoad 16/600 column (Cytiva). Fused variants with Aflibercept were purified via MabSelect SuRe (Cytiva) affinity chromatography followed by a size exclusion chromatography (SEC) using an Äkta system and a Superdex™ 200 HiLoad 16/600 column (Cytiva). All chromatography processing steps were carried out on AKTA systems using matrices from Cytiva. Homogenous species of all purified ligands were obtained; no aggregation was detected. Following SOS-PAGE analysis positive fractions were pooled and their protein concentrations were measured. Further analysis included SOS-PAGE, SE-HPLC and RP-HPLC. Protein concentrations were determined by absorbance measurement at 280 nm using the molar absorbent coefficient. Reversed phase chromatography (RP-HPLC) was performed using a Dionex HPLC system and a PLRP-S (5 μm, 300 Å) column (Agilent). Analytic size exclusion chromatography (SE-HPLC) was performed using a Dionex HPLC system and a Superdex200 increase 5/150 GL (Cytiva). Binding of Collagen II was evaluated by SPR measurements using a Biacore 3000 system. Purified Collagen II was obtained from Chondrex.inc and VEGF-165 was obtained from Millipore. Targets were immobilized on a CM5-Sensor via NHS/EDC chemistry (immobilization level ˜1000 RU). Binding molecules were injected at different concentration and affinity was calculated by langmuir 1:1 binding model.

[5] = biological target: T3, hCol2 (human Type II collagen) (Homo sapiens, UniProt P02458); assay: Binding analysis by SPR (Biacore 3000) vs human type II collagen
T3 construct: purchased Chondrex
Procedure: as §4, §2, §3

[6] = biological target: T4, recombinant human collagen type II (h Col II) (Homo sapiens, UniProt P02458); assay: KD-determination by ELISA vs human collagen type II; assay type: binding
T4 construct: purchased Chondrex CHX-20051
Procedure: as §1

[7] = biological target: Type I collagen (Homo sapiens, UniProt P02452+P08123); assay: SPR specificity vs Type I collagen; assay type: binding
Procedure: as §2, §3

T3 sequence (P02458 182-1241): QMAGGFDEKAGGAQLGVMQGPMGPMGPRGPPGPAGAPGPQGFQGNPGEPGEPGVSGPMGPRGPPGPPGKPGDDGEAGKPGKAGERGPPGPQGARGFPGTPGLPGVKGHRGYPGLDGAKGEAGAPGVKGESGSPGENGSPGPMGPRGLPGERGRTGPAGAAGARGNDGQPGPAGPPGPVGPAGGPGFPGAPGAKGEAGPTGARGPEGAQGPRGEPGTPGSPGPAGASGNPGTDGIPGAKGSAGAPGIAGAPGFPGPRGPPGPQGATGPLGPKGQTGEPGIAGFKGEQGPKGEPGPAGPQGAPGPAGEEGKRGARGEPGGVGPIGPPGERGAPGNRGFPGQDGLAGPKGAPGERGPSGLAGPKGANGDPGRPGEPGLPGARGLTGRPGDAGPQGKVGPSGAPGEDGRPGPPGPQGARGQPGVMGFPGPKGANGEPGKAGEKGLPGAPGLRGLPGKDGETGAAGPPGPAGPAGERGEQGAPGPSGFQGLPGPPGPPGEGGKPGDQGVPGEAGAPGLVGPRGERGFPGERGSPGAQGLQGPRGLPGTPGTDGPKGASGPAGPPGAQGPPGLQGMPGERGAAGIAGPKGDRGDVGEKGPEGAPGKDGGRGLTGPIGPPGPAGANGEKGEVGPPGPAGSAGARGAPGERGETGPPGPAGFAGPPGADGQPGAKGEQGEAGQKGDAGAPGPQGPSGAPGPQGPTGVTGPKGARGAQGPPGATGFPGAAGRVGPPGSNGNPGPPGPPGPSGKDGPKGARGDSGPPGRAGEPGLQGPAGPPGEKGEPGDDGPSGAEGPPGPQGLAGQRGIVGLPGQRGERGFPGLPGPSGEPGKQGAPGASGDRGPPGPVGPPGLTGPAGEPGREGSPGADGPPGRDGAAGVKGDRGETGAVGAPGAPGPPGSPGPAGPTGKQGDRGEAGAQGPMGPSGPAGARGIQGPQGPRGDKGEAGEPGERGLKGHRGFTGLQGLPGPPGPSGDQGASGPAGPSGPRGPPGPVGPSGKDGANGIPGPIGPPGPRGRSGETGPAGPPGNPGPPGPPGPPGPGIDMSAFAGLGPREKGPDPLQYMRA
Sequence of Type V collagen (P20908 38-1605 limits assumed): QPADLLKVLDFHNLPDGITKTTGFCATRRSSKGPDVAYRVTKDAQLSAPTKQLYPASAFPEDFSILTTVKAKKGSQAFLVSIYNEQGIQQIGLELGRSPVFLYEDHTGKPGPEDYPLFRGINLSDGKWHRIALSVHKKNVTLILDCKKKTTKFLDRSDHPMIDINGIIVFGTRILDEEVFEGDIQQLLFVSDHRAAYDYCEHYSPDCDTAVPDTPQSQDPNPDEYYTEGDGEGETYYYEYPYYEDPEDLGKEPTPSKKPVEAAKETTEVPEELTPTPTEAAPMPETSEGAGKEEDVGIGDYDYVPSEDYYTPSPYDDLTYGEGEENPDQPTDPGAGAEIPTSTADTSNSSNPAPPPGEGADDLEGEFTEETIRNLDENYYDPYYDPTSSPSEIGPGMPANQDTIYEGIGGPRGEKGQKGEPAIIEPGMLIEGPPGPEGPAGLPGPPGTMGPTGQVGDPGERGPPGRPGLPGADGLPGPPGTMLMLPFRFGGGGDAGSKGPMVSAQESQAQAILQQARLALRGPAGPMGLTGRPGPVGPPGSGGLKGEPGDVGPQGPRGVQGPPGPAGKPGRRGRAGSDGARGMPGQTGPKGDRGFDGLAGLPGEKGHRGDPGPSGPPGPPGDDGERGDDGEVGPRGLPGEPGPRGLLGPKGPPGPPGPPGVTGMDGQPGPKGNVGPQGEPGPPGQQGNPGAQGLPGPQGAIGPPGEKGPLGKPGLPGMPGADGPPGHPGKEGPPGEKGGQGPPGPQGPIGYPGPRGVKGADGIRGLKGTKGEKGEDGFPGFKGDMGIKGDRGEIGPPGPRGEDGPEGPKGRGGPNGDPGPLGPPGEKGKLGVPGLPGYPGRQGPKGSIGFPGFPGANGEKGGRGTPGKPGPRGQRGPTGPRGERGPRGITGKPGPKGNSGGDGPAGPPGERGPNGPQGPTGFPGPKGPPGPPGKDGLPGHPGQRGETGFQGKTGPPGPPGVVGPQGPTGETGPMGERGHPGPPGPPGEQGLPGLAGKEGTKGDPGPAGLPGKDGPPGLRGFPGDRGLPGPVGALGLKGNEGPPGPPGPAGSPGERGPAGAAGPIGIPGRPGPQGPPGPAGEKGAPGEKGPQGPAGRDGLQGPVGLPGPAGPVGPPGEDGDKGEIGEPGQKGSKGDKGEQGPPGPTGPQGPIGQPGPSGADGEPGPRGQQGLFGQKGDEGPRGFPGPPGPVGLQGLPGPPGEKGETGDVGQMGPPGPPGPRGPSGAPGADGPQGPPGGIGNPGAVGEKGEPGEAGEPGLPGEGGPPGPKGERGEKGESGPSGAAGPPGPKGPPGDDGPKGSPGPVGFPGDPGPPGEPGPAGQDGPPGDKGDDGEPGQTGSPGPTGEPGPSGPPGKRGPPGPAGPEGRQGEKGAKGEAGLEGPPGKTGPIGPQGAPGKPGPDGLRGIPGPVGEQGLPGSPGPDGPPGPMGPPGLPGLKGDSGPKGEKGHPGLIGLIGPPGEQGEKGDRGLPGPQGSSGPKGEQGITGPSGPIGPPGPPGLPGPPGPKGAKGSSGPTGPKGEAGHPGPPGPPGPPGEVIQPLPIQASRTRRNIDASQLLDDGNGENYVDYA
Sequence of Type V collagen (P05997 27-1229 limits assumed): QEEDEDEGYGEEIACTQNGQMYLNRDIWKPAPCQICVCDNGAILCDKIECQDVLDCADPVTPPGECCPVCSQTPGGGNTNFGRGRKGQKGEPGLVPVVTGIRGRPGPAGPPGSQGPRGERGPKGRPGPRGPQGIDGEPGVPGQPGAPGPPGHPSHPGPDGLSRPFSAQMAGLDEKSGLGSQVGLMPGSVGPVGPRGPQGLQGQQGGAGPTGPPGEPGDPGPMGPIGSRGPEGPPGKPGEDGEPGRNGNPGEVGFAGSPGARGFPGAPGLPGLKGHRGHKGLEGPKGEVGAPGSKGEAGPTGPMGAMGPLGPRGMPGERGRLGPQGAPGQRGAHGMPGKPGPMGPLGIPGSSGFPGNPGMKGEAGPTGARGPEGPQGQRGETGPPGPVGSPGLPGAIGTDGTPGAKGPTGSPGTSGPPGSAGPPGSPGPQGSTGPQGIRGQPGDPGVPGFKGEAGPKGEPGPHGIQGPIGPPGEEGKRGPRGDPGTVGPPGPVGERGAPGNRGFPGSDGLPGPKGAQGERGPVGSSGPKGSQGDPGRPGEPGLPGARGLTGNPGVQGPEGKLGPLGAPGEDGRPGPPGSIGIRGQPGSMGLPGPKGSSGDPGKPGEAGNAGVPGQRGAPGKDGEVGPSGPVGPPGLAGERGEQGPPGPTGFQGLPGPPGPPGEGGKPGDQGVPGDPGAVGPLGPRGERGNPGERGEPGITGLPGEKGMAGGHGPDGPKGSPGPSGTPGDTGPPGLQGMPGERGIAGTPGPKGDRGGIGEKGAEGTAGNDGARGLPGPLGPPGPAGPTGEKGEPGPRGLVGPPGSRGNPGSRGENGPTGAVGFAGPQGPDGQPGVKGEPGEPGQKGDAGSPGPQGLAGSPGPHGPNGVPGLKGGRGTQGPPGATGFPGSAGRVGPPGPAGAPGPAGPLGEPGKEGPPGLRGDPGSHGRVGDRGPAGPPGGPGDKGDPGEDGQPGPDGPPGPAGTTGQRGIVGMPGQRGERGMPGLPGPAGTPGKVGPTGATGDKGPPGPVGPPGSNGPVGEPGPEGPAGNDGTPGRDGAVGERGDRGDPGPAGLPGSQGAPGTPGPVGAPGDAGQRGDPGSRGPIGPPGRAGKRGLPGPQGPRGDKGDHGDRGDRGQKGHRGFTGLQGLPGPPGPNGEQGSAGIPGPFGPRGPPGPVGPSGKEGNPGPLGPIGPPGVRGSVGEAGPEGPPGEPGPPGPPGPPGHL
T4 sequence (P02458 182-1241): as the sequence (P02458 182-1241) above

B1: CID 211519: homodimer of SEQ ID NO: 11 (protein)
chain: IAAKFDEAQQAAFYEILHLPNLTEQQRNYFIQWLRDDPSVSPTVLGTAQQLNDSQAPKIAAKFDEAQQAAFYEILHLPNLTEQQRNYFIQWLRDDPSVSPTVLGTAQQLNDSQAPK
modifications: Col2 binding protein (dimer) 211519
specific binding vs porcine type II collagen (ELISA) [1]: 0.7 µM
Binding to Type III collagen (SPR) [2]: no binding
Binding to Type V collagen (SPR) [3]: no binding
Solubility Soluble expression [4]: 95%
Binding to type II collagen via SPR ([5]; FIG. 3, FIG. 4A): binding to Type II collagen with transient binding signal
Affinity [SPR] vs hCol2 ([5]; dimers or tetramers, Langmuir 1:1 model): 784 nM
Kd ([5]; multi-cycle Biacore measurement, FIG. 4B, read-out: KD for Type II collagen, equilibrium fit of amplitudes): 780 nM
binding affinity (KD) to human type II collagen (ELISA) [6]: 0.7 µM
Binding to Type I collagen (SPR) [7]: no binding
